# Test: Biodistribution of radiometal-DOTA-BBN conjugates in CF1 normal mice
# Settings: 1 hour post-injection; for tissue uptake at 1 h: Avg % ID/gm
# [1] = CF-1, mouse, in vivo, iv, total radioactivity, Stomach
SMILES,"Avg % ID, Blood","Avg % ID, Carcass","Avg % ID, Heart","Avg % ID, Kidney","Avg % ID, L. Intestine","Avg % ID, Liver","Avg % ID, Lung","Avg % ID, Muscle","Avg % ID, Pancreas","Avg % ID, S. Intestine","Avg % ID, Spleen","Avg % ID, Stomach","Avg % ID/gm, Blood","Avg % ID/gm, Heart","Avg % ID/gm, Kidney","Avg % ID/gm, L. Intestine","Avg % ID/gm, Lung","Avg % ID/gm, Muscle","Avg % ID/gm, S. Intestine","Avg % ID/gm, Stomach",other results
CSCC[C@H](NC(=O)[C@H](CC(C)C)NC(=O)[C@H](Cc1cnc[nH]1)NC(=O)CNC(=O)[C@@H](NC(=O)[C@H](C)NC(=O)[C@H](Cc1c[nH]c2ccccc12)NC(=O)[C@H](CCC(N)=O)NC(=O)CCNC(=O)CN1CCN(CC(=O)O)CCN(CC(=O)O)CCN(CC(=O)O)CC1)C(C)C)C(N)=O [149Pm-DOTA-β-Ala-BBN[7-14]NH2],0.30 ± 0.32 % ID,1.64 ± 0.38 % ID,0.02 ± 0.02 % ID,0.61 ± 0.41 % ID,0.31 ± 0.06 % ID,0.23 ± 0.07 % ID,0.06 ± 0.04 % ID,0.00 ± 0.01 % ID,0.46 ± 0.23 % ID,0.95 ± 0.19 % ID,0.02 ± 0.04 % ID,0.10 ± 0.03 % ID,0.21 ± 0.22 % ID/gm,0.17 ± 0.24 % ID/gm,2.05 ± 1.63 % ID/gm,0.42 ± 0.08 % ID/gm,0.34 ± 0.30 % ID/gm,0.04 ± 0.10 % ID/gm,0.63 ± 0.20 % ID/gm,0.19 ± 0.11 % ID/gm,"Avg % ID/gm, Liver: 0.15 ± 0.05 % ID/gm; Avg % ID/gm, Pancreas: 2.40 ± 1.33 % ID/gm; Avg % ID/gm, Spleen: 0.16 ± 0.31 % ID/gm"
CSCC[C@H](NC(=O)[C@H](CC(C)C)NC(=O)[C@H](Cc1cnc[nH]1)NC(=O)CNC(=O)[C@@H](NC(=O)[C@H](C)NC(=O)[C@H](Cc1c[nH]c2ccccc12)NC(=O)[C@H](CCC(N)=O)NC(=O)CCCCCCCNC(=O)CN1CCN(CC(=O)O)CCN(CC(=O)O)CCN(CC(=O)O)CC1)C(C)C)C(N)=O [149Pm-DOTA-8-Aoc-BBN[7-14]NH2],–,–,–,–,–,–,–,–,–,–,–,–,–,–,–,–,–,–,–,–,tissue uptake at 1 h [1]: 1.16 ± 0.59 %ID/g
CSCC[C@H](NC(=O)[C@H](CC(C)C)NC(=O)[C@H](Cc1cnc[nH]1)NC(=O)CNC(=O)[C@@H](NC(=O)[C@H](C)NC(=O)[C@H](Cc1c[nH]c2ccccc12)NC(=O)[C@H](CCC(N)=O)NC(=O)CN1CCN(CC(=O)O)CCN(CC(=O)O)CCN(CC(=O)O)CC1)C(C)C)C(N)=O [177Lu-DOTA-0-BBN[7-14]NH2] [metal not drawn],0.39 ± 0.34 % ID,4.34 ± 2.64 % ID,0.01 ± 0.02 % ID,0.58 ± 0.10 % ID,0.09 ± 0.12 % ID,0.19 ± 0.10 % ID,0.04 ± 0.06 % ID,0.02 ± 0.03 % ID,0.06 ± 0.10 % ID,1.27 ± 1.03 % ID,0.01 ± 0.01 % ID,0.05 ± 0.11 % ID,0.58 ± 0.96 % ID/gm,0.04 ± 0.09 % ID/gm,1.21 ± 0.31 % ID/gm,0.07 ± 0.09 % ID/gm,0.19 ± 0.26 % ID/gm,0.09 ± 0.15 % ID/gm,0.75 ± 0.60 % ID/gm,0.10 ± 0.21 % ID/gm,"Avg % ID/gm, Liver: 0.09 ± 0.06 % ID/gm; Avg % ID/gm, Pancreas: 0.18 ± 0.28 % ID/gm; Avg % ID/gm, Spleen: 0.04 ± 0.09 % ID/gm"
"CSCC[C@H](NC(=O)[C@H](CC(C)C)NC(=O)[C@H](Cc1c[nH]cn1)NC(=O)CNC(=O)[C@@H](NC(=O)[C@H](C)NC(=O)[C@H](Cc1c[nH]c2ccccc12)NC(=O)[C@H](CCC(N)=O)NC(=O)CCCCCCCCCCNC(=O)CN1CCN(CC(=O)O)CCN(CC(=O)O)CCN(CC(=O)O)CC1)C(C)C)C(N)=O [111In-DOTA-11-Aun-BBN[7-14]NH2, metal not drawn]",–,–,–,–,–,–,–,–,–,–,–,–,–,–,–,–,–,–,–,–,"tissue uptake dose at 1 h (CF-1, mouse, in vivo, iv, total radioactivity, Avg % ID, Blood): 0.79 ± 0.2 %ID; tissue uptake dose at 1 h (CF-1, mouse, in vivo, iv, total radioactivity, Avg % ID, Carcass): 7.35 ± 1.57 %ID; tissue uptake dose at 1 h (CF-1, mouse, in vivo, iv, total radioactivity, Avg % ID, Kidney): 1.07 ± 0.17 %ID; tissue uptake dose at 1 h (CF-1, mouse, in vivo, iv, total radioactivity, Avg % ID, L. Intestine): 5.54 ± 2.42 %ID; tissue uptake dose at 1 h (CF-1, mouse, in vivo, iv, total radioactivity, Avg % ID, Liver): 2.44 ± 0.5 %ID; tissue uptake dose at 1 h (CF-1, mouse, in vivo, iv, total radioactivity, Avg % ID, Pancreas): 11.6 ± 1.14 %ID; tissue uptake dose at 1 h (CF-1, mouse, in vivo, iv, total radioactivity, Avg % ID, S. Intestine): 17.8 ± 1.4 %ID; tissue uptake dose at 1 h (CF-1, mouse, in vivo, iv, total radioactivity, Avg % ID, Spleen): 0.19 ± 0.04 %ID; tissue uptake dose at 1 h (CF-1, mouse, in vivo, iv, total radioactivity, Avg % ID, Stomach): 0.53 ± 0.11 %ID; dose excreted at 1 h (CF-1, mouse, in vivo, iv, total radioactivity, Avg % ID, Urine): 53.3 ± 0.9%; tissue uptake at 1 h (CF-1, mouse, in vivo, iv, total radioactivity, L. Intestine): 4.34 ± 1.34 %ID/g; tissue uptake at 1 h (CF-1, mouse, in vivo, iv, total radioactivity, Liver): 1.22 ± 0.25 %ID/g; tissue uptake at 1 h (CF-1, mouse, in vivo, iv, total radioactivity, Pancreas): 26 ± 3.46 %ID/g; tissue uptake at 1 h (CF-1, mouse, in vivo, iv, total radioactivity, S. Intestine): 11.1 ± 2.07 %ID/g; tissue uptake at 1 h (CF-1, mouse, in vivo, iv, total radioactivity, Spleen): 1.15 ± 0.38 %ID/g; tissue uptake at 1 h [1]: 1.05 ± 0.25 %ID/g"
CSCC[C@H](NC(=O)[C@H](CC(C)C)NC(=O)[C@H](Cc1cnc[nH]1)NC(=O)CNC(=O)[C@@H](NC(=O)[C@H](C)NC(=O)[C@H](Cc1c[nH]c2ccccc12)NC(=O)[C@H](CCC(N)=O)NC(=O)CCNC(=O)CN1CCN(CC(=O)O)CCN(CC(=O)O)CCN(CC(=O)O)CC1)C(C)C)C(N)=O [177Lu-DOTA-β-Ala-BBN[7-14]NH2] [metal not drawn],0.24 ± 0.25 % ID,2.73 ± 1.08 % ID,0.05 ± 0.08 % ID,0.63 ± 0.14 % ID,0.36 ± 0.17 % ID,0.21 ± 0.09 % ID,0.04 ± 0.06 % ID,0.11 ± 0.18 % ID,0.32 ± 0.07 % ID,0.64 ± 0.20 % ID,0.05 ± 0.04 % ID,0.13 ± 0.09 % ID,0.16 ± 0.17 % ID/gm,0.43 ± 0.70 % ID/gm,1.88 ± 0.37 % ID/gm,0.45 ± 0.19 % ID/gm,0.23 ± 0.33 % ID/gm,0.94 ± 1.54 % ID/gm,0.49 ± 0.10 % ID/gm,0.34 ± 0.18 % ID/gm,"Avg % ID/gm, Liver: 0.15 ± 0.06 % ID/gm; Avg % ID/gm, Pancreas: 1.44 ± 0.26 % ID/gm; Avg % ID/gm, Spleen: 0.31 ± 0.31 % ID/gm"
CSCC[C@H](NC(=O)[C@H](CC(C)C)NC(=O)[C@H](Cc1cnc[nH]1)NC(=O)CNC(=O)[C@@H](NC(=O)[C@H](C)NC(=O)[C@H](Cc1c[nH]c2ccccc12)NC(=O)[C@H](CCC(N)=O)NC(=O)CN1CCN(CC(=O)O)CCN(CC(=O)O)CCN(CC(=O)O)CC1)C(C)C)C(N)=O [111In-DOTA-0-BBN[7-14]NH2] [metal not drawn],–,1.78 ± 0.37 % ID,–,–,0.10 ± 0.02 % ID,–,–,–,–,0.25 ± 0.04 % ID,–,–,0.10 ± 0.03 % ID/gm,–,–,–,–,0.03 ± 0.02 % ID/gm,0.44 ± 0.64 % ID/gm,0.06 ± 0.03 % ID/gm,–
CSCC[C@H](NC(=O)[C@H](CC(C)C)NC(=O)[C@H](Cc1c[nH]cn1)NC(=O)CNC(=O)[C@@H](NC(=O)[C@H](C)NC(=O)[C@H](Cc1c[nH]c2ccccc12)NC(=O)[C@H](CCC(N)=O)NC(=O)CCCCCCCCCCNC(=O)CN1CCN(CC(=O)O)CCN(CC(=O)O)CCN(CC(=O)O)CC1)C(C)C)C(N)=O [111In-DOTA-11-Aun-BBN[7-14]NH2] [metal not drawn],–,–,0.02 ± 0.01 % ID,–,–,–,0.08 ± 0.01 % ID,0.02 ± 0.01 % ID,–,–,–,–,0.34 ± 0.08 % ID/gm,0.13 ± 0.04 % ID/gm,2.06 ± 0.31 % ID/gm,–,0.26 ± 0.05 % ID/gm,0.09 ± 0.03 % ID/gm,–,–,–
